Laboratory results taken from the supplement of paper PMC10567573.

B1: TRIM9 (parent)
chain: CVQCKMPVCYQCLEEGKHSSHEVK

Variants of: B1
Test: protein stability index of a GFP-peptide fusion (GPS, HEK-293T) (PSI 1-6); higher = more stable
Conditions: c terminus: a fixed tail appended
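Further: lentivirally expressed fusions sorted by FACS into six bins by GFP to DsRed ratio, PSI derived from sequencing read proportions per bin multiplied by bin number.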

Protein stability index: each site, then its substitutions
V8: T 3.79 | M 4.13 | S 4.53 | F 4.03 | W 3.76 | D 4.21 | K 5.1 | Y 3.01 | N 4.49 | L 3.65 | H 4.89 | R 3.75 | C 3.95 | G 4.82 | E 4.41 | I 3.66 | P 3.61 | Q 4.33 | A 4.13
S19: D 3.8 | A 4.41 | M 3.72 | H 3.45 | F 3.37 | C 3.85 | I 3.4 | L 3.89 | G 3.67 | K 3.9 | E 4.62
Q11: D 4.05 | C 4.83 | I 3.4 | Y 3.52 | L 2 | E 3.57 | K 3.95 | T 4.12 | R 3.77 | G 4.92 | H 3.2 | S 3.67 | M 3.17 | F 3.65 | P 3.76 | V 3.27 | N 4.27 | W 2.93
H18: N 3.94 | G 3.63 | Y 3.55 | T 4.11 | W 3.04 | M 3.93 | K 3.7 | Q 3.47 | P 3.28 | A 4.04 | D 4.46 | F 3.78 | L 3.55 | E 3.56 | R 3.82 | I 3.41 | S 4.42 | C 3.79 | V 3
E15: F 2.82 | I 3.82 | L 3.65 | W 2.72 | P 3.88 | A 4.08 | T 3.69 | N 3.82 | D 4.07 | Q 3.76 | M 3.75 | R 3.47 | H 3.36 | G 4.15 | C 4.14 | K 3.67 | Y 3.36 | V 3.47 | S 3.81
K17: P 3.75 | C 3.47 | Q 4.5 | N 3.65 | D 2.88 | E 3.89 | V 3.81 | I 3.61 | R 2.96 | F 3.1 | M 3.3 | Y 3.54 | L 3.86 | S 3.42 | H 4.47 | A 4.14 | G 4.38
G16: W 2.8 | R 3.27 | D 4.58 | I 3.25 | H 3.36 | L 3.49 | T 3.83 | C 4.33 | V 3.62 | K 3.57 | F 3.73 | M 3.71 | Q 2.64 | N 4.09 | A 4.02 | P 3.9 | E 3.94 | Y 3.41 | S 3.7
L13: Q 4.48 | R 4.13 | H 4.55 | W 4.7 | T 3.08 | D 4.04 | P 4.47 | V 4.45 | C 4.88 | S 4.7 | I 4.08 | Y 3.48 | K 4.53 | G 4.81 | F 3.86 | M 4.21 | A 4.22 | N 3.46 | E 4.16
P7: K 3.84 | E 4.35 | G 4.59 | H 3.23 | C 4.06 | A 4.02 | S 3.65 | I 3.69 | D 3.11 | L 3.28 | W 3.18 | Q 3.83 | R 3.51 | V 3.52 | M 4.33 | F 2.48 | N 4.14 | T 3.08
Q3: I 3.6 | W 2.88 | M 3.4 | N 4.49 | E 3.82 | F 3.1 | Y 3.04 | H 4.52 | K 3.73 | P 2.94 | A 2.96 | T 3.56 | G 3.73 | C 3.99 | R 4.22 | S 4.12 | D 3.91
C9: W 2.96 | D 4.45 | G 4.47 | Y 2.8 | S 4.24 | P 3.02 | T 4.41 | A 4.19 | N 3.87 | R 3.31 | I 3.18 | F 2.59 | Q 4.09 | V 4.07 | L 3.28 | M 3.64 | H 3.5
M6: F 3.89 | P 3.62 | L 3.99 | Y 3.79 | V 4.13 | S 4.97 | I 3.4 | E 4.37 | A 3.95 | Q 4.36 | R 4.17 | T 3.96 | C 3.73 | G 4.93 | H 4.3 | D 4.71 | N 4.22 | K 4.46
C12: H 4.34 | W 2.92 | V 3.45 | S 4.48 | Q 4.03 | E 4.25 | G 3.81 | P 3 | F 3.19 | D 4.2 | A 3.35 | N 3.67 | Y 3.58 | K 4.8 | L 3.48 | M 3.7 | I 2.28 | T 3.42
E14: Y 3.15 | L 2.93 | Q 4.17 | C 4.34 | M 3.17 | F 2.97 | I 3.55 | K 3.99 | S 3.68 | P 3.75 | T 3.53 | A 3.12 | G 4.14 | H 3.34 | R 3.83 | D 2.99 | N 3.66 | V 3.34
K5: P 3.52 | H 3.8 | N 4.04 | E 4.22 | I 2.05 | L 2.58 | C 3.84 | G 4.38 | A 3.4 | S 3.9 | V 2.41 | Q 2.83 | T 3.38 | W 3.03 | Y 2.56 | D 3.75 | M 3.87 | F 2.52 | R 4.15
C1: T 3.75 | W 2.98 | N 2.79 | P 2.86 | V 3.23 | Q 4.03 | L 3.27 | I 3.08 | R 3.58 | Y 1.74 | K 3.65 | M 2.93
C4: F 2.66 | L 3.68 | R 2.83 | T 2.93 | M 3.37 | K 4.13 | H 3.62 | V 2.9 | Y 3.86 | N 3.3 | W 3.17 | I 2.44 | D 4.01 | S 3.23 | A 3.2 | G 3.15 | E 3.38 | P 4.11 | Q 3.39
Y10: A 4.26 | N 4.27 | I 3.71 | W 2.51 | Q 4.16 | H 4 | P 3.63 | R 4.27 | D 4.83 | K 4.15 | S 3.97 | T 3.52 | M 4.08 | C 3.58 | L 4.61 | V 3.74 | E 4.32 | F 4
V2: N 3.46 | E 3.92 | S 4.25 | F 3.51 | L 3.5 | T 3.85 | M 3.67 | I 4.02 | G 3.6 | H 4.63 | Q 4.04 | P 4.18 | W 3.16 | C 3.98 | D 4.16 | K 4.29 | A 3.97 | R 3.8 | Y 3.71
